The assay deals with T1, acetylated BSA (bovine, UniProt P02769 25-607, acetylated (N-acetyl groups; positions not stated); 125I-labelled or Alexa Fluor 488 C5 maleimide-labelled in the uptake experiments).
T1 construct: also called NAc-BSA; N-acetyl bovine serum albumin
Kind of assay: ELISA, plates coated with acetylated BSA, 5 mM CaCl2. A general note: In an ELISA, binding on a coated surface is turned into a signal by an enzyme label.

Changes are numbered by the printed parent chain. In names and notes the source's numbering stands.

T1 sequence (P02769 25-607 limits assumed): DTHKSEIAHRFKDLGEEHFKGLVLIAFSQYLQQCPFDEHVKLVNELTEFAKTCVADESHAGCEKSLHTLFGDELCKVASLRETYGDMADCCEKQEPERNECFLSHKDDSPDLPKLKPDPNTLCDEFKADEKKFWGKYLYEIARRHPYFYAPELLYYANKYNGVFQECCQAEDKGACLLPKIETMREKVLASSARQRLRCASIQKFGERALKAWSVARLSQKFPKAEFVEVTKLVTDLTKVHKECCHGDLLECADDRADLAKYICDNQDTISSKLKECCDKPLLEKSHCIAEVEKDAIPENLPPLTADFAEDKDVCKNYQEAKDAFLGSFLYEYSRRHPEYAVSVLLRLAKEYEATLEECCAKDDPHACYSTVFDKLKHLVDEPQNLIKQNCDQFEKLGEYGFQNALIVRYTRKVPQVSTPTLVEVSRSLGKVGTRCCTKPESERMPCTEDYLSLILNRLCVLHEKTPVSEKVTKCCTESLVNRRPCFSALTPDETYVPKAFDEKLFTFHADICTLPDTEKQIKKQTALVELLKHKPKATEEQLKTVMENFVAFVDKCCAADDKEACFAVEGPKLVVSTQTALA

B1: FIBCD1 FReD A432V (receptor)
chain: ATGSRPRDCLDVLLSGQQDDGVYSVFPTHYPAGFQVYCDMRTDGGGWTVFQRREDGSVNFFRGWDAYRDGFGRLTGEHWLGLKRIHALTTQAAYELHVDLEDFENGTAYARYGSFGVGLFSVDPEEDGYPLTVADYSGTAGDSLLKHSGMRFTTKDRDSDHSENNCAAFYRGAWWYRNCHTSNLNGQYLRGAHASYVDGVEWSSWTGWQYSLKFSEMKIRPVREDR
For B1, the binding result is listed as “no binding”.

B2: FIBCD1 FReD H415G (receptor)
chain: B1 chain with H180G, V197A
With B2, the binding result is “no binding”.
